B10: ScaC passenger domain (residues 33-223), purified (domain or fragment)
chain: VSNMNLDISNMGEAREGLRKDIAEVSKLLCMLEKSTASSKNLTMRLQQSDTRENEQSNHIRLLITEIESINKENDCLRQKNNQLKIKLHQLKVKLEQALARNTDLQQILPKSQAEMDNLRKQNEQLKIQLQQLQVKLQDLMSLQNKCSNLALINSVKLNYIRDIKYIALANIVIVKALASTFTEKLSKSNR

How the values were obtained:
full-length mouse BICD2 [1] = biological target: T1, full-length mouse BICD2 (mouse, UniProt Q921C5 1-820); experiment: SEC
[2] = biological target: B10; experiment: SEC
[3] = biological target: B10; experiment: pull-down
[4] = biological target: Rab6^Q72L (GTP-locked Rab6 mutant) (human, UniProt P20340 1-208, Q72L); experiment: pull-down
[5] = biological target: T2, full-length mouse BICD2 (mouse), Q921C5; experiment: SEC-MALS; details: remark: other sources report otherwise
T2 chain: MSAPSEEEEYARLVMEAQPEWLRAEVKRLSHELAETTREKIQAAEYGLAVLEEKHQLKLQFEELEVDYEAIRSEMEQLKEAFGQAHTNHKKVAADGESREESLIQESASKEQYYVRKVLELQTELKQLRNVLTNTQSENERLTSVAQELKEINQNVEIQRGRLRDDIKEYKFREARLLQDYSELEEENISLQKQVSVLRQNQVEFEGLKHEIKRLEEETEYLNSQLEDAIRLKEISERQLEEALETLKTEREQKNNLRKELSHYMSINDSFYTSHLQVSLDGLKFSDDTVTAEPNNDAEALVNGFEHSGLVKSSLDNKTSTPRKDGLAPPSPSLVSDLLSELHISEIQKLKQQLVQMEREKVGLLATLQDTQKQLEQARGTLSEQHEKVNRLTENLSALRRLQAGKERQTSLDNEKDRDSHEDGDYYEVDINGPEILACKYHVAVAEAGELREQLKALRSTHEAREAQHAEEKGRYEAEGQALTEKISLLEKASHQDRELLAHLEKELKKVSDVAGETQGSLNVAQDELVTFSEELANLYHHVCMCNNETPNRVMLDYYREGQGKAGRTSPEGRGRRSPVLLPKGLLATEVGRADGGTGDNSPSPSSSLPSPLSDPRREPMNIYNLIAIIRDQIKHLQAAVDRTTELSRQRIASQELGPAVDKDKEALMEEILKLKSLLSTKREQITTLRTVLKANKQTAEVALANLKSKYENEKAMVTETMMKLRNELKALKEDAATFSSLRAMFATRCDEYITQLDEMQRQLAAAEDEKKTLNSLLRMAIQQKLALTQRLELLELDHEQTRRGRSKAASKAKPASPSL

[6] = biological target: BICD2C (BICD2 residues 342-800) (mouse, UniProt Q921C5 342-800); experiment: SEC
[7] = biological target: BICD2-AF488 (AF488-labelled BICD2-SNAP) (mouse, UniProt Q921C5 1-820, Alexa Fluor 488 on the SNAP tag); experiment: single-molecule TIRF co-migration on microtubules
full-length mouse BICD2 [8] = biological target: T1, full-length mouse BICD2; experiment: SEC-MALS
SEC-MALS = biological target: the molecule itself; experiment: SEC-MALS

Sequence of Rab6^Q72L (GTP-locked Rab6 mutant) (P20340 whole entry Q72L): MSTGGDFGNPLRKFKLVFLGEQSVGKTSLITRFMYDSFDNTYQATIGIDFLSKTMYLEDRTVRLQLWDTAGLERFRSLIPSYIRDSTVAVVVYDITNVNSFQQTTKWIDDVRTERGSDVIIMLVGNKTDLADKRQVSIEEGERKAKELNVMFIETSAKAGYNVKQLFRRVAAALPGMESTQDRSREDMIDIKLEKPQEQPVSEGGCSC

B1: ScaC[50-159] (domain or fragment)
chain: LRKDIAEVSKLLCMLEKSTASSKNLTMRLQQSDTRENEQSNHIRLLITEIESINKENDCLRQKNNQLKIKLHQLKVKLEQALARNTDLQQILPKSQAEMDNLRKQNEQLK
B1: binds (full-length mouse BICD2 [1]).

B2: CC3 of BICD1 (mouse BICD1 residues 713-802) (domain or fragment)
chain: YENEKAMVTETMTKLRNELKALKEDAATFSSLRAMFATRCDEYVTQLDEMQRQLAAAEDEKKTLNTLLRMAIQQKLALTQRLEDLEFDHE
B2: binds [2].

B3: BICD2^711-800 (CC3 domain of BICD2) (domain or fragment)
chain: YENEKAMVTETMMKLRNELKALKEDAATFSSLRAMFATRCDEYITQLDEMQRQLAAAEDEKKTLNSLLRMAIQQKLALTQRLELLELDHE
B3: binds [3]; binds [4].

B4: Strep-BICD2^711-800 L742A/L786A (domain or fragment)
chain: YENEKAMVTETMMKLRNELKALKEDAATFSSARAMFATRCDEYITQLDEMQRQLAAAEDEKKTLNSLLRMAIQQKAALTQRLELLELDHE
B4: binds [3].

B5: Strep-BICD2^711-800 L742A (domain or fragment)
chain: YENEKAMVTETMMKLRNELKALKEDAATFSSARAMFATRCDEYITQLDEMQRQLAAAEDEKKTLNSLLRMAIQQKLALTQRLELLELDHE
B5: binds [3].

B6: Strep-BICD2^711-800 L786A (domain or fragment)
chain: YENEKAMVTETMMKLRNELKALKEDAATFSSLRAMFATRCDEYITQLDEMQRQLAAAEDEKKTLNSLLRMAIQQKAALTQRLELLELDHE
B6: binds [3].

B7: full-length mouse BICD2, Q921C5 1-820 (natural protein)
chain: MSAPSEEEEYARLVMEAQPEWLRAEVKRLSHELAETTREKIQAAEYGLAVLEEKHQLKLQFEELEVDYEAIRSEMEQLKEAFGQAHTNHKKVAADGESREESLIQESASKEQYYVRKVLELQTELKQLRNVLTNTQSENERLTSVAQELKEINQNVEIQRGRLRDDIKEYKFREARLLQDYSELEEENISLQKQVSVLRQNQVEFEGLKHEIKRLEEETEYLNSQLEDAIRLKEISERQLEEALETLKTEREQKNNLRKELSHYMSINDSFYTSHLQVSLDGLKFSDDTVTAEPNNDAEALVNGFEHSGLVKSSLDNKTSTPRKDGLAPPSPSLVSDLLSELHISEIQKLKQQLVQMEREKVGLLATLQDTQKQLEQARGTLSEQHEKVNRLTENLSALRRLQAGKERQTSLDNEKDRDSHEDGDYYEVDINGPEILACKYHVAVAEAGELREQLKALRSTHEAREAQHAEEKGRYEAEGQALTEKISLLEKASHQDRELLAHLEKELKKVSDVAGETQGSLNVAQDELVTFSEELANLYHHVCMCNNETPNRVMLDYYREGQGKAGRTSPEGRGRRSPVLLPKGLLATEVGRADGGTGDNSPSPSSSLPSPLSDPRREPMNIYNLIAIIRDQIKHLQAAVDRTTELSRQRIASQELGPAVDKDKEALMEEILKLKSLLSTKREQITTLRTVLKANKQTAEVALANLKSKYENEKAMVTETMMKLRNELKALKEDAATFSSLRAMFATRCDEYITQLDEMQRQLAAAEDEKKTLNSLLRMAIQQKLALTQRLELLELDHEQTRRGRSKAASKAKPASPSL
In the case of B7, the stoichiometry N [5] is reported as 2.

B8: BICD2N (BICD2 residues 1-400) (domain or fragment)
chain: MSAPSEEEEYARLVMEAQPEWLRAEVKRLSHELAETTREKIQAAEYGLAVLEEKHQLKLQFEELEVDYEAIRSEMEQLKEAFGQAHTNHKKVAADGESREESLIQESASKEQYYVRKVLELQTELKQLRNVLTNTQSENERLTSVAQELKEINQNVEIQRGRLRDDIKEYKFREARLLQDYSELEEENISLQKQVSVLRQNQVEFEGLKHEIKRLEEETEYLNSQLEDAIRLKEISERQLEEALETLKTEREQKNNLRKELSHYMSINDSFYTSHLQVSLDGLKFSDDTVTAEPNNDAEALVNGFEHSGLVKSSLDNKTSTPRKDGLAPPSPSLVSDLLSELHISEIQKLKQQLVQMEREKVGLLATLQDTQKQLEQARGTLSEQHEKVNRLTENLSALR
B8: binds [6].

B9: ScaC-AF647 (AF647-labelled ScaC-SNAP) (domain or fragment)
chain: VSNMNLDISNMGEAREGLRKDIAEVSKLLCMLEKSTASSKNLTMRLQQSDTRENEQSNHIRLLITEIESINKENDCLRQKNNQLKIKLHQLKVKLEQALARNTDLQQILPKSQAEMDNLRKQNEQLKIQLQQLQVKLQDLMSLQNKCSNLALINSVKLNYIRDIKYIALANIVIVKALASTFTEKLSKSNR
modifications: Alexa Fluor 647 on the SNAP tag
B9: binds [7].

For B10, the “stoichiometry N” value (full-length mouse BICD2 [8]) was 1 ScaC chains per BICD2 chain (2:2) and the “stoichiometry N” value (SEC-MALS) was 2.

From doi:10.1101/2024.04.11.589026 (bioRxiv, 2024)
